Experiment in all cases: SEC; Protein A affinity, then S200 size exclusion to purify the hexamer fraction; analytical HPLC; hexamer counts Fc units
Assay [1] deals with IgG1 Fc hexamer (L309) (human).
The target of assay [2] is IgG1 Fc hexamer (L309C) (human).
Assay [3] deals with IgG4 Fc hexamer (L309) (human).
Assay [4] concerns the target IgG4 Fc hexamer (L309C) (human).

On to IgG1 Fc hexamer (L309), for which, in assay [1], the stoichiometry N was determined as 6.

For the substance IgG1 Fc hexamer (L309C), in assay [2], the stoichiometry N came out at 6.

As to IgG4 Fc hexamer (L309), the stoichiometry N in assay [3] came to 6.

Regarding IgG4 Fc hexamer (L309C), the stoichiometry N in assay [4] was 6.

For the origin of these results see paper PMC6138732.
